Here are results for four compounds from patent publication EP4631959A2, “NOVEL MINIGASTRIN-DERIVED CHOLECYSTOKININ 2 RECEPTOR BINDING MOLECULES FOR IMAGING AND TARGETED RADIOTHERAPY” (priority 2022, dated 2024).

Like-named read-outs stand apart in the source and are kept apart here. Starred links: 1 amine or outer side, 2 acyl side, 3 side chain; linkers in the order of their positions; H or OH if unused. Non-standard residues stand in square brackets, D forms with d. Residues, ends and D or L forms follow the SMILES beside them. *: point of attachment. Benzoyl(4-SiFtBu2) = CC(C)(C)[Si](F)(c1ccc(C(=O)*)cc1)C(C)(C)C; DOTA = O=C(O)CN1CCN(CC(=O)O)CCN(CC(=O)*)CCN(CC(=O)O)CC1; d(γGlu) = O=C(O)[C@@H](CCC(=O)[*:2])N[*:1]; PEG8 = NCCOCCOCCOCCOCCOCCOCCOCCOCCC(=O)O; 1Nal = N[C@@H](Cc1cccc2ccccc12)C(=O)O; Hyp = O=C(O)[C@@H]1C[C@@H](O)CN1; NMeNle = CCCC[C@H](NC)C(=O)O; PEG4 = NCCOCCOCCOCCOCCC(=O)O; dDap = NC[C@@H](N)C(=O)O

Data set [1] addresses T1, CCK-2R (Rattus norvegicus, UniProt P30553).
T1 construct: The CCK-2R expressing rat pancreatic tumor cells AR4-2J; host or cells: AR4-2J rat pancreatic tumor cells
T1 sequence (P30553 1-452): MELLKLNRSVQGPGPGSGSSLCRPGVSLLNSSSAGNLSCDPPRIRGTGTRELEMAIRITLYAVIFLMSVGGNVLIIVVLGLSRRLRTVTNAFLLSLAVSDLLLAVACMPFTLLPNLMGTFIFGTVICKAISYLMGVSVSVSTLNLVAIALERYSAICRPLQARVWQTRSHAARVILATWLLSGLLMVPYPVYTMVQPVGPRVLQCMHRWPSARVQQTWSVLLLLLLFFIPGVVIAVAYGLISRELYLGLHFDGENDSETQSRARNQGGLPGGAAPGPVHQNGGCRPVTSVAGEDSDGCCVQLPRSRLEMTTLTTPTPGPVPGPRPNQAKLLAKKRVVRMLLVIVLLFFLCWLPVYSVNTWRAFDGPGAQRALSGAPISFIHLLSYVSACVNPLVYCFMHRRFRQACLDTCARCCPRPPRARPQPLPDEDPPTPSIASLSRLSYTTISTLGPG
In words: Determination of IC50: CCK-2R affinity on AR4-2J cells, competition with [^177Lu]Lu-DOTA-PP-F11N. To be noted: AR4-2J cells. The data set is classed as binding. Summed up: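 Competitive displacement of 0.3 pmol/well [177Lu]Lu-DOTA-PP-F11N by compounds (10^-10 to 10^-4 M) on AR4-2J cells in BSA-supplemented medium, 3 h at 37 °C. Free label was collected from medium plus PBS rinse, and cell-bound label was recovered with 1 M NaOH, both measured by γ-counter. Each IC50 was determined twice, in triplicate.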

The nature of data set [2]: n-Octanol-PBS distribution coefficient (logD7.4). The data set is classed as physicochemical. The following applies: for logD7.4 (n ≥ 5), ^177Lu-labeled: pH = 7.4, ^177Lu-labeled. The procedure: Approximately 1 MBq of the labeled tracer was dissolved in 1 mL of a 1/1 mixture (v/v) of phosphate buffered saline (PBS, pH = 7.4) and n-octanol in an Eppendorf tube (1.5 mL). After vigorous mixing of the suspension for 3 min at rt, the vial was centrifuged at 9,000 rpm for 5 min (Biofuge 15, Heraeus Sepatech, Osterode, Germany) and 200 µL aliquots of both layers were measured in a γ-counter. The experiment was repeated at least five times.

Data set [3] deals with T2, Human serum albumin (HSA) (Homo sapiens, UniProt P02768).
T2 construct: purchased Daicel, Tokyo, Japan H13H-2433
T2 sequence (P02768 25-609): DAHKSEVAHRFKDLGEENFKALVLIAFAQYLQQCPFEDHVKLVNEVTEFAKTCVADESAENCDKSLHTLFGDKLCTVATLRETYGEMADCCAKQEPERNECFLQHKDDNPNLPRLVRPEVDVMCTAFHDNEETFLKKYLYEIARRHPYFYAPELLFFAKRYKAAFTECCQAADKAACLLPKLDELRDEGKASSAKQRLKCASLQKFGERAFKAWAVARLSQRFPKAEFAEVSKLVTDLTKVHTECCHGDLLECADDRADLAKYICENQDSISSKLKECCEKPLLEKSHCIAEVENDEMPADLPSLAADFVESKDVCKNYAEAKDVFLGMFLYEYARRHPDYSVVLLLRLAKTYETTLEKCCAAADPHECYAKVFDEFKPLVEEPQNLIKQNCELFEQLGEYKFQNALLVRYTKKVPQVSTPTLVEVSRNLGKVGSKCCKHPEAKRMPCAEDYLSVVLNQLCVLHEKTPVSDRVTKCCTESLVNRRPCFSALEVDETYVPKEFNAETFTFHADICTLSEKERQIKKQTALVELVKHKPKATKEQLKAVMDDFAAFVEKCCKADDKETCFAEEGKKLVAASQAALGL
Kind of data set: Determination of HSA binding on a Chiralpak HSA column. The following applies: for HSA binding [%]: Tab. 8, metal not stated (Fig. 18: ^natLu). Format: in vitro ADME. The protocol: Human serum albumin (HSA) binding of the CCK-2R-targeted compounds was determined as reported by Valko et al., using a Chiralpak HSA column (50 x 3 mm, 5 µm, H13H-2433, Daicel, Tokyo, Japan) at a constant flow rate of 0.5 mL/min at rt. Therefore, an aq. solution of NH4OAc (pH = 6.9, 50 mM) as mobile phase A and isopropanol as mobile phase B were freshly prepared. In order to calibrate the column prior to the experiments, the retention times of nine reference substances with a HSA binding in the range of 13 to 99% were determined using a gradient of 100% A (0 to 3 min), followed by 80% A (3 to 40 min). Furthermore, all substances tested, were dissolved in a mixture (1/1, v/v) of A and B reaching a final concentration of 0.5 mg/mL. The HSA binding of all rhCCK ligands tested, was determined using the same gradient as for the calibration probes. The non-linear regression of the calibration experiments and the CCK-2R ligands (Fig. 29) was established using the OriginPro 2016G software (Northampton, United States).

The mark [4] stands for this setting: ^natLu-labeled, read-out: IC50 [nM] (n = 3), ^natLu-labeled.

As for `CCCC[C@@H](C(=O)N[C@@H](CC(=O)O)C(=O)N[C@@H](Cc1cccc2ccccc12)C(N)=O)N(C)C(=O)[C@H](Cc1c[nH]c2ccccc12)NC(=O)CCOCCOCCOCCOCCNC(=O)[C@@H](CCC(=O)O)NC(=O)CN1CCN(CC(=O)O)CCN(CC(=O)O)CCN(CC(=O)O)CC1` [DOTA-CCK-66.2, DOTA-glu-(PEG)3-Trp-(N-Me)Nle-Asp-1-Nal-NH2] ({DOTA}-[dE][PEG4]W[NMeNle]D[1Nal]-NH2), in data set [1] (^natCu-labeled, read-out: IC50 [nM] (n = 3), ^natCu-labeled), the half-maximal inhibitory concentration (IC50) stood at 5.8 ± 0.2 nM. For the same compound, the half-maximal inhibitory concentration (IC50) in data set [1] (^natGa-labeled, read-out: IC50 [nM] (n = 3), ^natGa-labeled) worked out at 6 ± 1 nM. Besides, the IC50 in data set [1] (setting [4]) was 4.8 ± 0.9 nM. Besides, the “logD7.4 (n ≥ 5), ^64Cu-labeled” value in data set [2] (pH = 7.4, ^64Cu-labeled) is recorded as −2.84 ± 0.08. In addition, the “logD7.4 (n ≥ 5), ^67Ga-labeled” value in data set [2] (pH = 7.4, ^67Ga-labeled) was −2.55 ± 0.04. Moreover, the “logD7.4 (n ≥ 5), ^177Lu-labeled” value in data set [2] is reported as −2.69 ± 0.09. In addition, in data set [3], the “HSA binding [%], ^natCu-labeled” value is 61.1%; the “HSA binding [%], ^natGa-labeled” value turned out to be 54.2%; the “HSA binding [%], ^natLu-labeled” value was found to be 72.7%.

For `CCCC[C@@H](C(=O)N[C@@H](CC(=O)O)C(=O)N[C@@H](Cc1cccc2ccccc12)C(N)=O)N(C)C(=O)[C@H](Cc1c[nH]c2ccccc12)NC(=O)CCOCCOCCOCCOCCNC(=O)CC[C@@H](NC(=O)CCOCCOCCOCCOCCOCCNC(=O)CC[C@@H](NC(=O)[C@@H](CNC(=O)C[N+](C)(C)Cc1ccc([Si](F)(C(C)(C)C)C(C)(C)C)cc1)NC(=O)CN1CCN(CC(=O)O)CCN(CC(=O)O)CCN(CC(=O)O)CC1)C(=O)O)C(=O)O` [DOTA-rhCCK-91, DOTA-dap(SiFAlin)-γ-glu-(PEG)4-γ-glu-(PEG)3-Trp-(N-Me)Nle-Asp-1-Nal-NH2], the IC50 was 8.56 ± 0.7 nM in data set [1] (setting [4]) and 8.24 ± 1.6 nM in data set [1] (read-out: IC50 [nM] (n = 3), ^natGa-labeled, ^natGa-labeled). The “logD7.4 (n ≥ 5), ^177Lu-labeled” value in data set [2] is −1.66 ± 0.08. The “HSA binding [%]” value in data set [3] came to 90.0%.

Regarding `CCCC[C@@H](C(=O)N[C@@H](CC(=O)O)C(=O)N[C@@H](Cc1cccc2ccccc12)C(N)=O)N(C)C(=O)[C@H](Cc1c[nH]c2ccccc12)NC(=O)CCOCCOCCOCCOCCNC(=O)CC[C@@H](NC(=O)CCOCCOCCOCCOCCOCCOCCOCCOCCNC(=O)[C@@H](CNC(=O)c1ccc([Si](F)(C(C)(C)C)C(C)(C)C)cc1)NC(=O)CN1CCN(CC(=O)O)CCN(CC(=O)O)CCN(CC(=O)O)CC1)C(=O)O` [DOTA-rhCCK-73, DOTA-dap(SiFA)-(PEG)7-γ-glu-(PEG)3-Trp-(N-Me)Nle-Asp-1-Nal-NH2] ({DOTA}-[dDap](Benzoyl(4-SiFtBu2))[PEG8][d(γGlu)][PEG4]W[NMeNle]D[1Nal]-NH2), the 50% inhibitory concentration (IC50) in data set [1] (setting [4]) was 15.6 ± 0.7 nM. In addition, the “logD7.4 (n ≥ 5), ^177Lu-labeled” value in data set [2] is −1.02 ± 0.06. Moreover, the “HSA binding [%]” value in data set [3] is on record as 90.4%.

For the compound `CCCC[C@@H](C(=O)N[C@@H](CC(=O)O)C(=O)N[C@@H](Cc1cccc2ccccc12)C(N)=O)N(C)C(=O)[C@H](Cc1c[nH]c2ccccc12)NC(=O)CCOCCOCCOCCOCCNC(=O)CC[C@@H](NC(=O)[C@@H]1C[C@@H](O)CN1C(=O)[C@@H]1C[C@@H](O)CN1C(=O)[C@@H]1C[C@@H](O)CN1C(=O)CC[C@@H](NC(=O)[C@@H](CNC(=O)c1ccc([Si](F)(C(C)(C)C)C(C)(C)C)cc1)NC(=O)CN1CCN(CC(=O)O)CCN(CC(=O)O)CCN(CC(=O)O)CC1)C(=O)O)C(=O)O` [DOTA-rhCCK-83, DOTA-dap(SiFA)-γ-glu-(Hyp)3-γ-glu-(PEG)3-Trp-(N-Me)Nle-Asp-1-Nal-NH2] ({DOTA}-[dDap](Benzoyl(4-SiFtBu2))[d(γGlu)][Hyp][Hyp][Hyp][d(γGlu)][PEG4]W[NMeNle]D[1Nal]-NH2), in data set [1] (read-out: IC50 [nM] (n = 3), ^natLu-labeled, ^natLu-labeled), the half-inhibitory concentration (IC50) is 10 ± 0.9 nM. For the same compound, the “logD7.4 (n ≥ 5), ^177Lu-labeled” value in data set [2] is −1.50 ± 0.05. Besides, in data set [3], the “HSA binding [%]” value is 93.4%.
